We go through one molecule from patent US20240376156A1, “MULTIPLE DE NOVO DESIGNED PROTEIN BINDING PROTEINS” (UNIVERSITY OF WASHINGTON, priority 2021, published 2024).

Data set [1] concerns the target VirB8-like protein from Rickettsia typhi (Rickettsia typhi). Description: BLI (Octet); biotinylated target on streptavidin sensors, miniprotein as analyte. (In general: Biolayer interferometry detects binding as a change in optical thickness at a sensor tip.)
The target in the next data set is VirB8. The class given is binding, Rickettsia typhi. To be noted: read-out: Octet kD.
Data set [2] can be described thus: Circular dichroism wavelength scans and temperature melts (Tm). The class given is physicochemical. For orientation: Circular dichroism is widely used to follow secondary structure.

B1: VirB8_mb (designed binder)
chain: MSHHHHHHHHSENLYFQSGGGNAEEITEKATLVGIEAWLLAKDEEQKKKVRTLNRQVKKLLQQNDLDQAKRVLDQLKSVLEDLKS
Regarding B1, the Kd (in data set [1]; on VirB8) was 0.5 nM each time. In data set [2], the TM was determined as 66.2 °C.
